In this assay the target is RGA5-HMA5 labeled with NT-647 (MST) (rice) (UniProt F7J0N2). Briefly: MST.

By Kd is commonly meant a measure of binding affinity in units of concentration. A higher Kd goes with a looser complex. “AVR-PikD, recombinant (MST and HDX-MS) (natural protein)” returned a Kd of 12 µM.

(Values after publication doi:10.1101/2022.08.17.504349.)
